Measured values: article PMC2756588

T1: Abp1, P15891
T1 sequence (P15891 535-592, looked up): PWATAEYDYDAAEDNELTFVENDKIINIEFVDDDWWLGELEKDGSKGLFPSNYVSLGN

T2: Myo5, Q04439
T2 sequence (Q04439 1072-1160, looked up): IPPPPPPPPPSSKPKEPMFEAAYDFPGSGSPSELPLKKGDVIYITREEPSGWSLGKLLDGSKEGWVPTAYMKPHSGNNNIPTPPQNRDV

T3: Cdc25, P04821
T3 sequence (P04821 50-136, looked up): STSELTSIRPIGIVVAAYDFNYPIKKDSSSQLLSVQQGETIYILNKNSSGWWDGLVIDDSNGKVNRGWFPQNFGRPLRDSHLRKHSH

T4: Sla1-2, P32790
T4 sequence (P32790 60-140, looked up): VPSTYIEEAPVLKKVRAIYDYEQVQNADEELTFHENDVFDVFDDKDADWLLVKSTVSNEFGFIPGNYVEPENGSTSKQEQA

T5: Pex13, P80667
T5 sequence (P80667 295-386, looked up): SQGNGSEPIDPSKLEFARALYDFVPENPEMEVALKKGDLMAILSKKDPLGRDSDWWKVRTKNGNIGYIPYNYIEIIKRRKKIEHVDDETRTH

T6: Bbc1, P47068
T6 sequence (P47068 1-78, looked up): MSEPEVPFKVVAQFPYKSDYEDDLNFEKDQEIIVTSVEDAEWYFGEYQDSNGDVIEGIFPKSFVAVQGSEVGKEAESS

T7: Hse1, P38753
T7 sequence (P38753 208-285, looked up): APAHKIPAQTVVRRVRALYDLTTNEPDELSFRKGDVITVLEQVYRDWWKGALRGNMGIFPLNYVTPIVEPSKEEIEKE

T8: Nbp2, Q12163
T8 sequence (Q12163 103-180, looked up): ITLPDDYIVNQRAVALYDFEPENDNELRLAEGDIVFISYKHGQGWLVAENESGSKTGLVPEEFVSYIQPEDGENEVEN

T9: Bud14, P27637
T9 sequence (P27637 247-328, looked up): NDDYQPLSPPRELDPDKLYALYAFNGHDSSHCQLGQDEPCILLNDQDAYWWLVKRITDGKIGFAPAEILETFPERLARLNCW

T10: Pin3, Q06449
T10 sequence (Q06449 53-122, looked up): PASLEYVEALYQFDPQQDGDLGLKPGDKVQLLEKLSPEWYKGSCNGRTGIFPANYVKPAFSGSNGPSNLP

T11: Hof1, Q05080
T11 sequence (Q05080 590-669, looked up): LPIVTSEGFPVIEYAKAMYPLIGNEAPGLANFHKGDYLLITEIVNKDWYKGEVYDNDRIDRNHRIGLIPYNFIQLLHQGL

T12: Sla1-3, P32790
T12 sequence (P32790 344-424, looked up): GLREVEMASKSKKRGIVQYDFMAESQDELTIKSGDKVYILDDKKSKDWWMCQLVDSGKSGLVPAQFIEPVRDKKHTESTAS

T13: Fus1, P11710
T13 sequence (P11710 432-512, looked up): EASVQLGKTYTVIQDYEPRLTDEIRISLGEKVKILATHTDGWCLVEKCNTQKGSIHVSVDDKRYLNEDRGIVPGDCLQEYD

T14: Lsb1, P53281
T14 sequence (P53281 45-122, looked up): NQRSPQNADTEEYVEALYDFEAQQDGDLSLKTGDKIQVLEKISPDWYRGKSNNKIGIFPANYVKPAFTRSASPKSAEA

T15: Lsb3, P43603
T15 sequence (P43603 385-451, looked up): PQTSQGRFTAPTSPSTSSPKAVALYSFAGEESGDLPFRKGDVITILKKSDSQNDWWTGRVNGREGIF

T16: Cyk3, Q07533
T16 sequence (Q07533 1-83, looked up): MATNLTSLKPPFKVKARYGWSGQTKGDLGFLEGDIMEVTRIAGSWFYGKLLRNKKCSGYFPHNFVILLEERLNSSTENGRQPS

T17: Boi1, P38041
T17 sequence (P38041 1-86, looked up): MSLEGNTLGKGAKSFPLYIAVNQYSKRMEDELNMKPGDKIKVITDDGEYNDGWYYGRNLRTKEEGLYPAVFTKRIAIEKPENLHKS

T18: Lsb4, P32793
T18 sequence (P32793 402-468, looked up): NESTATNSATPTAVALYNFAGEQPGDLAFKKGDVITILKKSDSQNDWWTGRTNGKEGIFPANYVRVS

T19: Bzz1-2, P38822
T19 sequence (P38822 568-633, looked up): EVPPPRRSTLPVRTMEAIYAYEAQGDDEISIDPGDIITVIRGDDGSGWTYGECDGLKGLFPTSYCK

T20: Bzz1-1, P38822
T20 sequence (P38822 478-572, looked up): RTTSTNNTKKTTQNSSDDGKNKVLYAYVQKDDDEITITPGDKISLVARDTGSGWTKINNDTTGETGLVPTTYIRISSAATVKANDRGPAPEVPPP

T21: Boi2, P39969
T21 sequence (P39969 32-116, looked up): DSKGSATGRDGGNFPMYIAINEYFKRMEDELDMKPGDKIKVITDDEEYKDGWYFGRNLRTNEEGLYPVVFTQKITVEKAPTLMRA


The binders below were run against T1, Abp1, P15891 (assay: SPOT array). Conditions: median of control spots 935.

SPOT intensity	Binder
617	KTKQQKPAIPQKKSF
564	NLKKRPPTAPQRKIS
75	MTKTPETSPPKRPMG

These binders were tested against Sho1, P40073 (assay: SPOT array). Conditions: median of control spots 1148.
Sequence of Sho1, P40073 (P40073 287-367): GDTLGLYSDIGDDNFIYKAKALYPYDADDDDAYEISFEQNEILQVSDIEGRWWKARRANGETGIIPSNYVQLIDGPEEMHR

SPOT intensity	Binder
38	KTKQQKPAIPQKKSF
229	NLKKRPPTAPQRKIS
5	MTKTPETSPPKRPMG

What follows are binders tested against T2, Myo5, Q04439 (assay: SPOT array). Conditions: median of control spots 471.

SPOT intensity	Binder
1	KTKQQKPAIPQKKSF
3	NLKKRPPTAPQRKIS
499	MTKTPETSPPKRPMG

The binders below were run against T3, Cdc25, P04821 (assay: SPOT array). Conditions: median of control spots 969.

SPOT intensity	Binder
3	KTKQQKPAIPQKKSF
203	NLKKRPPTAPQRKIS
2	MTKTPETSPPKRPMG

These binders were tested against T4, Sla1-2, P32790 (assay: SPOT array). Conditions: median of control spots 712.

SPOT intensity	Binder
0	KTKQQKPAIPQKKSF
3	NLKKRPPTAPQRKIS
2	MTKTPETSPPKRPMG

Each binder was assayed against T5, Pex13, P80667 (assay: SPOT array). Conditions: median of control spots 1341.

SPOT intensity	Binder
5	KTKQQKPAIPQKKSF
13	NLKKRPPTAPQRKIS
8	MTKTPETSPPKRPMG

What follows are binders tested against T6, Bbc1, P47068 (assay: SPOT array). Conditions: median of control spots 796.

SPOT intensity	Binder
1	KTKQQKPAIPQKKSF
31	NLKKRPPTAPQRKIS
0	MTKTPETSPPKRPMG

The binders below were run against T7, Hse1, P38753 (assay: SPOT array). Conditions: median of control spots 1727.

SPOT intensity	Binder
6	KTKQQKPAIPQKKSF
157	NLKKRPPTAPQRKIS
0	MTKTPETSPPKRPMG

Each binder was assayed against GST (assay: SPOT array). Conditions: median of control spots 978.

SPOT intensity	Binder
1	KTKQQKPAIPQKKSF
2	NLKKRPPTAPQRKIS
0	MTKTPETSPPKRPMG

The binders below were run against T8, Nbp2, Q12163 (assay: SPOT array). Conditions: median of control spots 357.

SPOT intensity	Binder
0	KTKQQKPAIPQKKSF
48	NLKKRPPTAPQRKIS
0	MTKTPETSPPKRPMG

These binders were tested against T9, Bud14, P27637 (assay: SPOT array). Conditions: median of control spots 956.

SPOT intensity	Binder
0	KTKQQKPAIPQKKSF
25	NLKKRPPTAPQRKIS
0	MTKTPETSPPKRPMG

The binders below were run against T10, Pin3, Q06449 (assay: SPOT array). Conditions: median of control spots 2171.

SPOT intensity	Binder
3	KTKQQKPAIPQKKSF
7	NLKKRPPTAPQRKIS
24	MTKTPETSPPKRPMG

Each binder was assayed against Bem1-2, P29366 (assay: SPOT array). Conditions: median of control spots 4347.
Sequence of Bem1-2, P29366 (P29366 139-227): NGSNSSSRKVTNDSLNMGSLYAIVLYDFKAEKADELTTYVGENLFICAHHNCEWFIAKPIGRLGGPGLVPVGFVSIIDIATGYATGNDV

SPOT intensity	Binder
5	KTKQQKPAIPQKKSF
51	NLKKRPPTAPQRKIS
3	MTKTPETSPPKRPMG

The binders below were run against T11, Hof1, Q05080 (assay: SPOT array). Conditions: median of control spots 4086.

SPOT intensity	Binder
0	KTKQQKPAIPQKKSF
28	NLKKRPPTAPQRKIS
16	MTKTPETSPPKRPMG

These binders were tested against T12, Sla1-3, P32790 (assay: SPOT array). Conditions: median of control spots 5475.

SPOT intensity	Binder
0	KTKQQKPAIPQKKSF
161	NLKKRPPTAPQRKIS
0	MTKTPETSPPKRPMG

The binders below were run against Rvs167, P39743 (assay: SPOT array). Conditions: median of control spots 2707.
Sequence of Rvs167, P39743 (P39743 419-482): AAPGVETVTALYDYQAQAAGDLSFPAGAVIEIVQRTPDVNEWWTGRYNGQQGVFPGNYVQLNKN

SPOT intensity	Binder
4	KTKQQKPAIPQKKSF
18	NLKKRPPTAPQRKIS
0	MTKTPETSPPKRPMG

The binders below were run against T13, Fus1, P11710 (assay: SPOT array). Conditions: median of control spots 1200.

SPOT intensity	Binder
0	KTKQQKPAIPQKKSF
8	NLKKRPPTAPQRKIS
0	MTKTPETSPPKRPMG

Each binder was assayed against T14, Lsb1, P53281 (assay: SPOT array). Conditions: median of control spots 388.

SPOT intensity	Binder
0	KTKQQKPAIPQKKSF
8	NLKKRPPTAPQRKIS
3	MTKTPETSPPKRPMG

The binders below were run against T15, Lsb3, P43603 (assay: SPOT array). Conditions: median of control spots 406.

SPOT intensity	Binder
4	KTKQQKPAIPQKKSF
45	NLKKRPPTAPQRKIS
34	MTKTPETSPPKRPMG

Each binder was assayed against T16, Cyk3, Q07533 (assay: SPOT array). Conditions: median of control spots 1451.

SPOT intensity	Binder
0	KTKQQKPAIPQKKSF
2	NLKKRPPTAPQRKIS
0	MTKTPETSPPKRPMG

These binders were tested against T17, Boi1, P38041 (assay: SPOT array). Conditions: median of control spots 1162.

SPOT intensity	Binder
0	KTKQQKPAIPQKKSF
15	NLKKRPPTAPQRKIS
0	MTKTPETSPPKRPMG

The binders below were run against T18, Lsb4, P32793 (assay: SPOT array). Conditions: median of control spots 397.

SPOT intensity	Binder
2	KTKQQKPAIPQKKSF
141	NLKKRPPTAPQRKIS
36	MTKTPETSPPKRPMG

Each binder was assayed against Myo3, P36006 (assay: SPOT array). Conditions: median of control spots 468.

SPOT intensity	Binder
2	KTKQQKPAIPQKKSF
20	NLKKRPPTAPQRKIS
455	MTKTPETSPPKRPMG

Each binder was assayed against Bem1-1, P29366 (assay: SPOT array). Conditions: median of control spots 4282.
Sequence of Bem1-1, P29366 (P29366 55-141): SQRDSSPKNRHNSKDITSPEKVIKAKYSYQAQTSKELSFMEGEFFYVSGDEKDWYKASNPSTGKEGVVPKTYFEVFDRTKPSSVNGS

SPOT intensity	Binder
0	KTKQQKPAIPQKKSF
0	NLKKRPPTAPQRKIS
0	MTKTPETSPPKRPMG

These binders were tested against T19, Bzz1-2, P38822 (assay: SPOT array). Conditions: median of control spots 4538.

SPOT intensity	Binder
9	KTKQQKPAIPQKKSF
324	NLKKRPPTAPQRKIS
4	MTKTPETSPPKRPMG

Each binder was assayed against T20, Bzz1-1, P38822 (assay: SPOT array). Conditions: median of control spots 4446.

SPOT intensity	Binder
0	KTKQQKPAIPQKKSF
22	NLKKRPPTAPQRKIS
3	MTKTPETSPPKRPMG

Each binder was assayed against T21, Boi2, P39969 (assay: SPOT array). Conditions: median of control spots 1161.

SPOT intensity	Binder
0	KTKQQKPAIPQKKSF
0	NLKKRPPTAPQRKIS
0	MTKTPETSPPKRPMG
